# Reference: the Human Domainome abundance scans (Beltran et al. 2025)
# ± gives the uncertainty stated by the source.
# B1: Death-inducer obliterator 1, residues 263 to 321; numbered along this chain, Q9BTC0 (parent)
# chain: GYDPNALYCICRQPHNNRFMICCDRCEEWFHGDCVGISEARGRLLERNGEDYICPNCTI
# Variants of: B1
# Assay: abundance fitness (aPCA) (normalised: wild type 0, dead -1); higher = more abundant; growth selection in yeast, the domain comes from the species named
# Conditions: Homo sapiens
row,Variant,abundance fitness
1,GYDPNALYCICRQPHNNRFMICCDRCEEWFVGDCVGISEARGRLLERNGEDYICPNCTI,-0.664 ± 0.093
2,GYDPNALYCICRQPHNNRFMICCDRCEEWFWGDCVGISEARGRLLERNGEDYICPNCTI,-0.507 ± 0.11
3,GYDPNALYCICRQPHNNRFMICCDRCEEWFYGDCVGISEARGRLLERNGEDYICPNCTI,-0.732 ± 0.17
4,GYDPNALYCICRQPHNNRFMICCDRCEEWFHADCVGISEARGRLLERNGEDYICPNCTI,0.067 ± 0.075
5,GYDPNALYCICRQPHNNRFMICCDRCEEWFHDDCVGISEARGRLLERNGEDYICPNCTI,0.045 ± 0.097
6,GYDPNALYCICRQPHNNRFMICCDRCEEWFHEDCVGISEARGRLLERNGEDYICPNCTI,0.022 ± 0.05
7,GYDPNALYCICRQPHNNRFMICCDRCEEWFHFDCVGISEARGRLLERNGEDYICPNCTI,-0.016 ± 0.1
8,GYDPNALYCICRQPHNNRFMICCDRCEEWFHHDCVGISEARGRLLERNGEDYICPNCTI,-0.009 ± 0.13
9,GYDPNALYCICRQPHNNRFMICCDRCEEWFHIDCVGISEARGRLLERNGEDYICPNCTI,0.169 ± 0.071
10,GYDPNALYCICRQPHNNRFMICCDRCEEWFHLDCVGISEARGRLLERNGEDYICPNCTI,0.025 ± 0.046
11,GYDPNALYCICRQPHNNRFMICCDRCEEWFHMDCVGISEARGRLLERNGEDYICPNCTI,-0.054 ± 0.045
12,GYDPNALYCICRQPHNNRFMICCDRCEEWFHNDCVGISEARGRLLERNGEDYICPNCTI,-0.179 ± 0.1
13,GYDPNALYCICRQPHNNRFMICCDRCEEWFHPDCVGISEARGRLLERNGEDYICPNCTI,-0.155 ± 0.067
14,GYDPNALYCICRQPHNNRFMICCDRCEEWFHQDCVGISEARGRLLERNGEDYICPNCTI,-0.054 ± 0.084
15,GYDPNALYCICRQPHNNRFMICCDRCEEWFHRDCVGISEARGRLLERNGEDYICPNCTI,0.026 ± 0.05
16,GYDPNALYCICRQPHNNRFMICCDRCEEWFHSDCVGISEARGRLLERNGEDYICPNCTI,-0.036 ± 0.045
17,GYDPNALYCICRQPHNNRFMICCDRCEEWFHTDCVGISEARGRLLERNGEDYICPNCTI,0.084 ± 0.073
18,GYDPNALYCICRQPHNNRFMICCDRCEEWFHVDCVGISEARGRLLERNGEDYICPNCTI,-0.055 ± 0.059
19,GYDPNALYCICRQPHNNRFMICCDRCEEWFHWDCVGISEARGRLLERNGEDYICPNCTI,0.05 ± 0.069
20,GYDPNALYCICRQPHNNRFMICCDRCEEWFHYDCVGISEARGRLLERNGEDYICPNCTI,-0.421 ± 0.18
21,GYDPNALYCICRQPHNNRFMICCDRCEEWFHGACVGISEARGRLLERNGEDYICPNCTI,-0.154 ± 0.078
22,GYDPNALYCICRQPHNNRFMICCDRCEEWFHGCCVGISEARGRLLERNGEDYICPNCTI,-0.013 ± 0.068
23,GYDPNALYCICRQPHNNRFMICCDRCEEWFHGECVGISEARGRLLERNGEDYICPNCTI,-0.026 ± 0.077

row,Variant,abundance fitness
1,GYDPNALYCICRQPHNNRFMICCDRCEEWFHGGCVGISEARGRLLERNGEDYICPNCTI,-0.027 ± 0.04
2,GYDPNALYCICRQPHNNRFMICCDRCEEWFHGHCVGISEARGRLLERNGEDYICPNCTI,-0.101 ± 0.072
3,GYDPNALYCICRQPHNNRFMICCDRCEEWFHGKCVGISEARGRLLERNGEDYICPNCTI,-0.028 ± 0.078
4,GYDPNALYCICRQPHNNRFMICCDRCEEWFHGLCVGISEARGRLLERNGEDYICPNCTI,-0.047 ± 0.045
5,GYDPNALYCICRQPHNNRFMICCDRCEEWFHGMCVGISEARGRLLERNGEDYICPNCTI,-0.195 ± 0.08
6,GYDPNALYCICRQPHNNRFMICCDRCEEWFHGNCVGISEARGRLLERNGEDYICPNCTI,-0.259 ± 0.075
7,GYDPNALYCICRQPHNNRFMICCDRCEEWFHGPCVGISEARGRLLERNGEDYICPNCTI,-0.136 ± 0.059
8,GYDPNALYCICRQPHNNRFMICCDRCEEWFHGQCVGISEARGRLLERNGEDYICPNCTI,-0.127 ± 0.11
9,GYDPNALYCICRQPHNNRFMICCDRCEEWFHGRCVGISEARGRLLERNGEDYICPNCTI,-0.002 ± 0.052
10,GYDPNALYCICRQPHNNRFMICCDRCEEWFHGSCVGISEARGRLLERNGEDYICPNCTI,-0.048 ± 0.059
11,GYDPNALYCICRQPHNNRFMICCDRCEEWFHGTCVGISEARGRLLERNGEDYICPNCTI,0.008 ± 0.066
12,GYDPNALYCICRQPHNNRFMICCDRCEEWFHGVCVGISEARGRLLERNGEDYICPNCTI,-0.198 ± 0.054
13,GYDPNALYCICRQPHNNRFMICCDRCEEWFHGWCVGISEARGRLLERNGEDYICPNCTI,-0.237 ± 0.063
14,GYDPNALYCICRQPHNNRFMICCDRCEEWFHGYCVGISEARGRLLERNGEDYICPNCTI,0.13 ± 0.082
15,GYDPNALYCICRQPHNNRFMICCDRCEEWFHGDAVGISEARGRLLERNGEDYICPNCTI,-0.68 ± 0.12
16,GYDPNALYCICRQPHNNRFMICCDRCEEWFHGDDVGISEARGRLLERNGEDYICPNCTI,-0.376 ± 0.16
17,GYDPNALYCICRQPHNNRFMICCDRCEEWFHGDEVGISEARGRLLERNGEDYICPNCTI,-0.608 ± 0.12
18,GYDPNALYCICRQPHNNRFMICCDRCEEWFHGDFVGISEARGRLLERNGEDYICPNCTI,-1.12 ± 0.17
19,GYDPNALYCICRQPHNNRFMICCDRCEEWFHGDGVGISEARGRLLERNGEDYICPNCTI,-0.726 ± 0.28
20,GYDPNALYCICRQPHNNRFMICCDRCEEWFHGDHVGISEARGRLLERNGEDYICPNCTI,-0.368 ± 0.066
21,GYDPNALYCICRQPHNNRFMICCDRCEEWFHGDKVGISEARGRLLERNGEDYICPNCTI,-0.763 ± 0.14
22,GYDPNALYCICRQPHNNRFMICCDRCEEWFHGDLVGISEARGRLLERNGEDYICPNCTI,-0.805 ± 0.087
